The subject of assay [1] is Rag1 knock-out mice, CD45Rb high CD4 T cell transfer colitis. The experiment in a line: CD45Rb high T-cell transfer chronic colitis mouse model. In kind it is in vivo. As to conditions: FIG. 21; 1 mg/kg three times a week for 3 weeks from day 32; control mice start to lose weight. As to the method:
Weight variation of treated animals was followed up to sixty days. Animals were treated with isotype control hIgG1 (x) or anti-CMKLR1 antibody (=).
Method: CD45Rb^high CD4 T cells were isolated from the spleen of naive mice and sorted on an ARIA FACS after a negative selection of the CD4 T cells by magnetic sorting, then injected intraperitoneally at 0.5·10^6 cells in 100 μL of PBS into 6-weeks old female Rag1 knock-out mice. Anti-CMKLR1 antibody (2G1) or an isotype control were administered from day 32 after the CD45Rb^high CD4 T cell transfer for 3 weeks three times a week at 1 mg/kg. The follow-up of weight was evaluated three times a week and the weight variation was determined over the initial weight. * p<0.05, ** p<0.01.

Assay [2] concerns mice, peritonitis induced by Zymosan A. Kind of assay: Zymosan A peritonitis model (sepsis). The class given is in vivo. As to conditions: preventive injection, vs isotype control. As to the method:
FIG. 7. […] Preventive injection of anti-CMKLR1 was performed before Zymosan A injection (1 mg per mouse in 1 mL): RvE1 (1 μg per mouse) (•), 2G1 antibody (10 μg per mouse) ( ) or isotype control antibody (x). A. PMN numbered during the first 50 hours after Zymosan A injection. B. Macrophages numbered during the first 50 hours after Zymosan A injection. C. Resolution index.
Common peritonitis is induced by intraperitoneal injection of Zymosan A® (1 mg per mouse in 1 mL). Preventive injection of anti-CMKLR1 was performed 5 minutes before Zymosan A injection: RvE1 (1 μg per mouse), 2G1 antibody (10 μg per mouse). Murine peritoneal polymorphonuclear neutrophil (PMN) and macrophages were collected at 2-4-8-16-24 and 48 h after Zymosan A injection and numbered by flow cytometry analysis to determinate the resolution index (Bannenberg et al., 2005).

A further assay has as its system CT26 cells. The experiment in a line: CT26 colon carcinoma model. The class given is in vivo, mice. Particulars: FIG. 9A-C, 20 μg/injection i.p. for 3 weeks. The protocol:
(§1) FIG. 9. […] Two mice models were studied, and animals received isotype control antibody (3G8) (x) or anti-CMKLR1 (2G1) ( ) at 20 μg/injection intraperitoneally for 3 weeks. A-C. Results in the CT26 colon carcinoma model comparing single treatment with p84 (A) and 2G1 (B) with combined therapy with both antibodies (C). D: Results in the MC38 colon carcinoma model.
(§2) 8-week old C57bl/6J male mice were anesthetized with 3% of isoflurane. Mice were shaved on the flank and MC38 cells (0.5·10^6 cells/mouse) cell lines were injected subcutaneously with an insulinic syringe (30 Gauges) in 50 μL of PBS. Another model was used, in which 8-week old Balb/c male mice were anesthetized with 3% of isoflurane. Mice were shaved on the flank and CT26 cells (1·10^6 cells/mouse) were injected subcutaneously with an insulinic syringe (30 Gauges) in 50 μL of PBS.
(§3) The agonistic anti-CMKLR1 antibody (2G1) or an anti-SIRPa antibody (p84-anti-mouse SIRPa from Merck Millipore) (SIRPa is a new checkpoint inhibitor) were injected once a week (20 μg/injection) intraperitoneally for 3 weeks starting at d4 after tumor inoculation alone or combined.

The target of assay [3] is T1, CMKLR1 receptor (Homo sapiens, UniProt Q99788).
T1 construct: host or cells: CHO-K1
T1 sequence (Q99788 1-373): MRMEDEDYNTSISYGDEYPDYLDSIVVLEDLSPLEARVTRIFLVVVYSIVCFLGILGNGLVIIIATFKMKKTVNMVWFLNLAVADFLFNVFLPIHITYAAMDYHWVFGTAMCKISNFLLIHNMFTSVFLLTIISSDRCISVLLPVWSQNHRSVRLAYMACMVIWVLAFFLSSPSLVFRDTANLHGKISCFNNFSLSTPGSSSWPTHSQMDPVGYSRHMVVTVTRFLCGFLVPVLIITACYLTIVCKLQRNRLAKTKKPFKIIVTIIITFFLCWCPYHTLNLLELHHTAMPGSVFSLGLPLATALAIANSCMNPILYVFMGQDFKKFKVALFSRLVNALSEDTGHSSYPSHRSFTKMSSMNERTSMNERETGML
The experiment in a line: Competition assay of Chemerin-dependent β-arrestin recruitment by CMKLR1 receptor, CHO-K1 CMKLR1 cells. The class given is cell-based. As to conditions: FIG. 20B; antibody 1 μM to 1 nM, Chemerin 2 or 6 nM. The protocol: The day before the assay, CHO-K1 CMKLR1 cells (Discover'X ref 93-0313E2) were plated in pre-warmed cell reagent then plated in a 96-well plate at 100 μl/well of cells as (Discover'X ref 15-103) and incubated […] at 37° C., in a 5% CO2 humidified incubator. The anti-CMLKR1 antibody was diluted (22× in 7-point series of 3-fold dilutions from 1 μM to 1 nM) and cells were incubated 30 min at 37° C. with the antibody. […] The luminescence was measured after Working Detection Solution addition to the cells with a plate reader with 0.5 s integration.
A general note: Recruitment of arrestin is a read-out of receptor activation apart from second messengers.

Assay [4] addresses T1, CMKLR1 receptor. Kind of assay: Competition with Chemerin in cAMP production by CMKLR1 receptor, CHO-K1 CMKLR1 Gi cells. The class given is cell-based. As to conditions: FIG. 20A; antibody 1 μM to 1 nM, chemerin 2 nM. As to the method:
The day before the experiment CHO-K1 CMKLR1 Gi cells (Discover'X ref 95-0080C2) were plated in pre-warmed cell reagent then plated in a 96-well plate at 100 μl/well of cells as (Discover'X ref 15-103) and incubated 24 hours at 37° C., in a 5% CO2 humidified incubator for 24 hours.
For the detection CAMP, antibody reagent and cAMP working detection solution was added to the plate for 1 hour at room temperature, then CAMP solution A was added, and cells incubated 3 hours at room temperature in the dark. Bioluminescence was read with a plate reader with 0.5 s integration.
(In general: cAMP levels reflect the balance of adenylyl cyclase and phosphodiesterase activity.)

A further assay concerns MC38 cells. The experiment in a line: MC38 colon carcinoma model. In kind it is in vivo, mice. Particulars: FIG. 9D, 20 μg/injection i.p. for 3 weeks, vs isotype control. As to the method: as §1, §2, §3
Assay [5] concerns the target T2, CMKLR1 EL3 loop (SEQ ID No: 18) (Homo sapiens, UniProt Q99788).
T2 sequence (Q99788 275-307 limits assumed): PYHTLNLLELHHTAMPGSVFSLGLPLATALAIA
Kind of assay: ELISA binding on CMKLR1 peptide. As to conditions: OD at 450 nm, FIG. 12, vs isotype control. As to the method: FIG. 12. Binding analysis of the anti-CMKLR1 antibody on a CMKLR1 peptide by ELISA. The binding of the 2G1 antibody ( ) on the CMKLR1 EL3 loop (SEQ ID No: 18) was compared to the isotype control antibody (3G8) (x) by measuring the OD at 450 nm by ELISA.
CMKLR1 peptide (273NH2-[…]-COOH305) (SEQ ID No: 18) (5 μg/ml) was coated in borate buffer overnight. Saturation was performed with PBS-Tween 0.1%-Gelatin 0.25% for 2 hours at 37° C. Then, 2G1 or hIgG1 antibodies were added at different concentrations for 2 hours at 37° C. […] The colorimetric reaction was read with TECAN.
(In an ELISA, binding on a coated surface is turned into a signal by an enzyme label.)

B1: 2G1: chimeric anti-CMKLR1 antibody, murine variable regions (SEQ ID No: 10 and 17), human IgG1 constant regions; VH-CDR3 variant LI (antibody, V domains shown)
VH: METDTLLLWVLLLWVPGSTGDEVQLVASGGGLVQPGGSLKLSCAASGFTFSSYGMSWVRQTPDRRLELVATINRYGGSTYYPDSVKGRFTISRDNAKNTLYLQMSSLKSEDTAMYYCPRLIYYGNEGDSWGQGTTLTVSS
VL: METDTLLLWVLLLWVPGSTGDQIVLTQSPAIMSASPGEKVTMTCSASSSVSFMHWYQQKSGTSPKRWIYDTTKLTSGVPARFSGSGSGTFYSLTISSMEAEDAATYYCQQWNSKPPLTFGPGTKLELKR
modifications: human IgG1 constant regions
notes: VH-CDR3 variant LI
Turning to B1, the weight variation result in assay [1] is listed as “continue to gain weight”. Also, the PMNs number result in assay [2] (FIG. 7A) is reported as “slightly less”. Further, the macrophages number entry in assay [2] (FIG. 7B) is given as “slightly less”. In assay [2] (FIG. 7C), the resolution index entry was “better resolution index”. The “tumor development / tumor growth” value with CT26 cells was “did not demonstrate a clinical effect on the tumor development”. Further, the “effect on chemerin-dependent activation of the beta-arrestin” value in the assay with CMKLR1 receptor [3] is recorded as “did not significantly modify chemerin-dependent activation of the beta-arrestin”. In addition, the “reversal of Chemerin-induced inhibition of forskolin-dependent cAMP production” value with CMKLR1 receptor [4] is reported as “could not revert this inhibition of production”. Besides, the tumor growth entry with MC38 cells is “did show an efficacy in the inhibition of the tumor growth”. For the same molecule, in assay [5], the “binding to the polypeptide forming the loop EL3 of CMKLR1” value is given as “able to bind the polypeptide forming the loop EL3 of CMKLR1”.

The values above are taken from patent US20240400698A1, “ANTI-CHEMOKIN LIKE RECEPTOR 1 ANTIBODIES AND THEIR THERAPEUTIC APPLICATIONS” (OSE IMMUNOTHERAPEUTICS, priority 2018, published 2024).
